Assay [1] addresses TRAIL-Trimer fusion protein (human) (UniProt P50591). The assay can be described thus: SDS-PAGE under non-reducing and reducing conditions; 2 µg of purified protein on 10% or 15% SDS-PAGE, Coomassie Blue; TRAIL-Trimer also by western blot.
Assay [2] concerns the target T1, TRAIL-Fc fusion protein (human), P50591.
T1 chain: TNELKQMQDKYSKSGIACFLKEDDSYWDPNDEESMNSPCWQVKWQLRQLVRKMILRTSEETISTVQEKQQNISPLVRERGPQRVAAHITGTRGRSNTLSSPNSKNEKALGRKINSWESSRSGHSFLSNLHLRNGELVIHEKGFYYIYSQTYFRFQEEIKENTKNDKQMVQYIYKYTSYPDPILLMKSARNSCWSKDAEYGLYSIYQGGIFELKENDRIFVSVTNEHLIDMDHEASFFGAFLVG
Described as above. The conditions noted are these: remark: other sources report otherwise.

As usually defined, the stoichiometry N is a count of units in the complex or per binding partner. “TRAIL-Trimer fusion protein (from UniProt P50591 39-281) (ligand)” came in with a stoichiometry N in assay [1] of 3.

B1: TRAIL-Fc fusion protein, P50591 39-281 (Fc fusion)
chain: T1 chain
In turn, B1 showed a stoichiometry N in assay [2] of 2.

Values taken from PMC5566391.
